Measured values from patent US20120156198A1 (Hoffmann-La Roche, published 2012).
Numbering of substitutions follows the chain as printed. Each block holds one binder with its values, some of them ahead of it.

Experiments:
[1] = target: T1, human IL-18Rα (IL-18R1) on human cells (KG-1 cells, PBMC, TH1-cultured T cells, whole blood) (human, UniProt Q13478 19-541); test: cell-based or functional assay
T1 sequence: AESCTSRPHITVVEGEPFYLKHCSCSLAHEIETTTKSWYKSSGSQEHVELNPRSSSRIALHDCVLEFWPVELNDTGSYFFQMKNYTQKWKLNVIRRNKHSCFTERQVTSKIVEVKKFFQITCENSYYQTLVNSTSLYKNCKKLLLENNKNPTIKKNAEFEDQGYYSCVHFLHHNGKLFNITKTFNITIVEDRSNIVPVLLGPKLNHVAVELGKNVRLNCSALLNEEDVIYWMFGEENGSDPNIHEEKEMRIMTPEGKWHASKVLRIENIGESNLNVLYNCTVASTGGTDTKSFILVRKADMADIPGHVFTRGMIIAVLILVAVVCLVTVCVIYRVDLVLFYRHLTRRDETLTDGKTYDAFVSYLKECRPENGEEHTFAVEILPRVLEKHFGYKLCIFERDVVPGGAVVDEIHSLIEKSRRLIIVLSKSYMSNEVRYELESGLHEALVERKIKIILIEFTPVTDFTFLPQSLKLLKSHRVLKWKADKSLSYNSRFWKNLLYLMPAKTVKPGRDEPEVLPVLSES

[2] = target: T2, recombinant human IL-18Rα Fc chimera (R&D Systems, Cat. No. 816-LR) (human, UniProt Q13478 19-329); test: ELISA, hFc fusion protein captured on anti-human Fc
T2 construct: Bought protein; also called hIL-18Rα (hFc-chimera R&D-Systems 816-LR); recombinant human IL-18Rα-Fc fusion protein; not shown: human Fc of the commercial chimera
T2 sequence: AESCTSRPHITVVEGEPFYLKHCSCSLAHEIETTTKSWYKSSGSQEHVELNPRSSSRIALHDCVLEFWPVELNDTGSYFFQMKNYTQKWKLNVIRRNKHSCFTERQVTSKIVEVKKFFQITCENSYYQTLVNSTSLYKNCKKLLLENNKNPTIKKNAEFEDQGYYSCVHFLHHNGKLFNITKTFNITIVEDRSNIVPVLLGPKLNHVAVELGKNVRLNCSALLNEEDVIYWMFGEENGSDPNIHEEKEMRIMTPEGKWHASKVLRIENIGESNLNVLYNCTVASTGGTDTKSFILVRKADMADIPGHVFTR
Protocol: (§1) The test was performed on 384-well microtiter plates (MaxiSorp™, Thermo Scientific Nunc, DK, Cat. No. 464718) at RT. After each incubation step, plates were washed 3 times with PBST. At the beginning, plates were coated with 0.5 μg/ml goat anti-human IgG Fc fragment (Jackson 1 mm. Res., US, Cat. No. 109-006-170) for at least 2 hours (h). Thereafter the wells were blocked with PBS supplemented with 0.2% Tween®-20 and 2% BSA (Roche Diagnostics GmbH, DE) for 1 h. 0.2 μg/ml of recombinant human IL-18Rα-Fc fusion protein (R&D Systems, UK, Cat. No. 816-LR) was captured on plate for 1 h. For testing the binding of antibodies to other proteins of the IL-1 receptor family 0.2 μg/ml of the following recombinant human proteins conjugated to human Fc (hFc) were captured: [0194] rhIL-1RI/hFc (R&D Systems, UK, Cat. No. 269-1R) [0195] rhIL-1sRII/hFc (R&D Systems, UK, Cat. No. 263-2R) [0196] rhIL-1R3/hFc (R&D Systems, UK, Cat. No. 676-CP) [0197] rhIL-2Rα/hFc (R&D Systems, UK, Cat. No. 1020-RL) [0198] rhIL-7Rα/hFc (R&D Systems, UK, Cat. No. 306-IR) [0199] rhIL-15R/hFc (R&D Systems, UK, Cat. No. 147-IR) [0200] rhST-2/hFc (R&D Systems, UK, Cat. No. 523-ST)
(§2) After washing the plate, dilutions of purified antibodies in PBS with 0.05% BSA and 0.2% Tween®-20 were incubated with the receptor proteins for 1 h. Binding of antibodies was detected with 1:2000 diluted horseradish peroxidase (HRP)-conjugates of anti-mouse IgG (GE Healthcare, UK, Cat. No. NA9310V). After 1 h the plates were washed 6 times with PBST and developed with freshly prepared BM Blue® POD substrate solution (BM Blue®: 3,3″-5,5″-Tetramethylbenzidine, Roche Diagnostics GmbH, DE, Cat. No. 11484281001) for 30 minutes at RT. Absorbance was measured at 370 nm. The values were corrected for the control without antibody.

[3] = target: T3, rhIL-1RI/hFc (R&D Systems, Cat. No. 269-1R) (human, UniProt P14778 18-332); test: as above
T3 construct: Bought; not shown: human Fc (hFc) of the commercial protein
T3 sequence (looked up): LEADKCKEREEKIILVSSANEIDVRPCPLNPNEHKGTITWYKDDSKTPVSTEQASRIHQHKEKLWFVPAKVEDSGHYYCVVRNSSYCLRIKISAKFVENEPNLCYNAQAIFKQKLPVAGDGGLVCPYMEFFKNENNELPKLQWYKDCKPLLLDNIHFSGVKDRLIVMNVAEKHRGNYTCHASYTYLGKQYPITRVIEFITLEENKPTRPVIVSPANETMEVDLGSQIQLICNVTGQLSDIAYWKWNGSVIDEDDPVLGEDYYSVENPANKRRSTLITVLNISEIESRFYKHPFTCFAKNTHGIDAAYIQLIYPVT
Protocol: as §1, §2

[4] = target: T4, rhIL-15R/hFc (R&D Systems, Cat. No. 147-IR) (human, UniProt Q13261 31-205); test: as above
T4 construct: Bought; not shown: human Fc (hFc) of the commercial protein
Protocol: as §1, §2

T4 sequence (Q13261 31-205): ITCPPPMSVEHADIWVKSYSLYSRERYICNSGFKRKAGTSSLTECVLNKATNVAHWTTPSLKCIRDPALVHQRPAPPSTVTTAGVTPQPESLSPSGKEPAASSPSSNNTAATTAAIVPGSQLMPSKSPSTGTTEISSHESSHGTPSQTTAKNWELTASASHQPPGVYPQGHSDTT

IL-18 induced IFNγ production in human PBMC, IC50 [ng/ml] [1]: 0.76 ng/mL
absorbance at 370 nm (corrected for the control without antibody) [2]: 2.43
absorbance at 370 nm (corrected for the control without antibody) [3]: 0.01
absorbance at 370 nm (corrected for the control without antibody) [4]: 0.04
B1: Mab 1G12 (antibody, V domains shown)
VH: QVQLQQPGAELVKPGASVRMSCKTSDYTFTSNWMHWVKQRPGQGLEWIGTIDPSDSYTYYNQKFKGRATLTVDTSSSTAYMQLSSLTSEDSAVYYCTTSGDYDADRYFDVWGAGTTVTVSS
VL: DIVLTQSPASLGVSLGQRATISCRASKSVSTSGDSYMHWYQQKPGQSPKLLIYLASNLESGVPARFSGSGSGTDFTLNIHPVEEEDAATYYCQQSRELPLSFGAGTKLELK
notes: Monoclonal antibody from immunized NMRI mice; detected with anti-mouse IgG1-PE / anti-mouse IgG; also called F20.1G12; monoclonal antibody 1G12

IL-18 induced IFNγ production in human PBMC, IC50 [ng/ml] [1]: 1.71 ng/mL
absorbance at 370 nm (corrected for the control without antibody) [2]: 2.56
absorbance at 370 nm (corrected for the control without antibody) [3]: 0.02
absorbance at 370 nm (corrected for the control without antibody) [4]: 0.19
B2: Mab 2D11 (antibody, V domains shown)
VH: B1 VH with R19K, T24A, R67K, Q82H
VL: B1 VL
notes: Monoclonal antibody from immunized NMRI mice; detected with anti-mouse IgG1-PE / anti-mouse IgG; also called F20.2D11
